Substrate in this series: Nc1ncnc2c1ncn2[C@@H]1O[C@H](COP(=O)(O)OP(=O)(O)OP(=O)(O)O)[C@@H](O)[C@H]1O
The series can be described thus: ATP Km by microfluidic mobility shift kinase assay. It counts as biochemical, Homo sapiens. To be noted: Mg2+ ([…] MgCl2 in the assay buffer).

Consider one protein from article PMC4866589.

By Km is commonly meant the substrate concentration at which the rate is half of its maximum.

B1: hTSSK2 (testis-specific serine/threonine kinase 2) (Homo sapiens) (protein)
chain: MDDATVLRKKGYIVGINLGKGSYAKVKSAYSERLKFNVAVKIIDRKKTPTDFVERFLPREMDILATVNHGSIIKTYEIFETSDGRIYIIMELGVQGDLLEFIKCQGALHEDVARKMFRQLSSAVKYCHDLDIVHRDLKCENLLLDKDFNIKLSDFGFSKRCLRDSNGRIILSKTFCGSAAYAAPEVLQSIPYQPKVYDIWSLGVILYIMVCGSMPYDDSDIRKMLRIQKEHRVDFPRSKNLTCECKDLIYRMLQPDVSQRLHIDEILSHSWLQPPKPKATSSASFKREGEGKYRAECKLDTKTGLRPDHRPDHKLGAKTQHRLLVVPENENRMEDRLAETSRAKDHHISGAEVGKAST
With B1, the Michaelis-Menten constant (Km) turned out to be 2.17 ± 0.04 µM.
